Results on one molecule are retold here after paper PMC9696751.

Ends that are not written are not given here. Some results are limits rather than exact numbers.

This experiment deals with nano-HER2-E3 (UniProt P04637). In words: SEC; analytical chromatography on Superdex 200 Increase 5/150 GL; equimolar mixtures.

For the molecule C(Alexa‑647 maleimide)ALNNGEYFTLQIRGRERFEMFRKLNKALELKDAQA [647-C-K3], the formation of the complexes (percent) was below 95%.
